Reference: US20200353003A1

Target: BDCA2 antigen (CLEC4C, CD303) expressed on transduced RS4-11 and A95-KK reporter cells (UniProt Q8WTT0)
Assay: cell-based or functional assay

Chain of UniProt Q8WTT0 (Q8WTT0 whole entry): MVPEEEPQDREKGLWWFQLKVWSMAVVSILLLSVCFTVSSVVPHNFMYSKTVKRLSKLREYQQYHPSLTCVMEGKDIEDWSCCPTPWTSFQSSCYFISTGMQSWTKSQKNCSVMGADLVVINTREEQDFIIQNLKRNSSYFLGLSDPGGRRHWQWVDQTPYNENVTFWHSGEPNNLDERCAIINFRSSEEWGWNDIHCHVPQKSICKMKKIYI

B1: BDCA2 CAR (chimeric antigen receptor specific for BDCA2, with aBDCA2-scFV as binder) (protein, part only; not given: hinge, transmembrane and signaling domains, not shown: another chain or arm of the molecule; a dimerising Fc or GST)
scFv: DIQMTQSPSSVSASVGDRVTITCRASQEISGYLSWYQQKPGKAIKRLIYAASTLDSGVPSRFSGSRSGTDFTLTISSLQSEDFATYYCLQYASYPPTFGGGTKLEIKGGGGSGGGGSGGGGSQVTLKESGPTLVKPTQTLTLTCTFSGFSLSTSGMGVGWIRQPPGKALEWLAHIWWEDDKYYNPSLKSRLTITKDTSKNQVVLTMTNMDPVDTATYYCTRNWDYYTMDYWGQGTTVTVSS
- killing of target cells expressing BDCA2 (reporter-BDCA2 and RS4-11-BDCA2) by NK and T cells expressing BDCA2-CAR, flow cytometry based cytotoxic assay, E:T=1:1: > 70%
